Experimental data taken from US5352587A, “Compositions and methods for the synthesis of natriuretic protein receptor B and methods of use” (Genentech, Inc., priority 1991, dated 1994).
Ends that are not written are not given here.

Legend:
[1] = biological target: T1, NPRA (Homo sapiens, UniProt P16066); assay: Specific binding to COS-7 cells transfected with pRK-NPRA; details: Table 2, 0.5 nM, room temperature, 1 hr
T1 construct: whole cells or solubilized membranes
T1 sequence (P16066 33-1061): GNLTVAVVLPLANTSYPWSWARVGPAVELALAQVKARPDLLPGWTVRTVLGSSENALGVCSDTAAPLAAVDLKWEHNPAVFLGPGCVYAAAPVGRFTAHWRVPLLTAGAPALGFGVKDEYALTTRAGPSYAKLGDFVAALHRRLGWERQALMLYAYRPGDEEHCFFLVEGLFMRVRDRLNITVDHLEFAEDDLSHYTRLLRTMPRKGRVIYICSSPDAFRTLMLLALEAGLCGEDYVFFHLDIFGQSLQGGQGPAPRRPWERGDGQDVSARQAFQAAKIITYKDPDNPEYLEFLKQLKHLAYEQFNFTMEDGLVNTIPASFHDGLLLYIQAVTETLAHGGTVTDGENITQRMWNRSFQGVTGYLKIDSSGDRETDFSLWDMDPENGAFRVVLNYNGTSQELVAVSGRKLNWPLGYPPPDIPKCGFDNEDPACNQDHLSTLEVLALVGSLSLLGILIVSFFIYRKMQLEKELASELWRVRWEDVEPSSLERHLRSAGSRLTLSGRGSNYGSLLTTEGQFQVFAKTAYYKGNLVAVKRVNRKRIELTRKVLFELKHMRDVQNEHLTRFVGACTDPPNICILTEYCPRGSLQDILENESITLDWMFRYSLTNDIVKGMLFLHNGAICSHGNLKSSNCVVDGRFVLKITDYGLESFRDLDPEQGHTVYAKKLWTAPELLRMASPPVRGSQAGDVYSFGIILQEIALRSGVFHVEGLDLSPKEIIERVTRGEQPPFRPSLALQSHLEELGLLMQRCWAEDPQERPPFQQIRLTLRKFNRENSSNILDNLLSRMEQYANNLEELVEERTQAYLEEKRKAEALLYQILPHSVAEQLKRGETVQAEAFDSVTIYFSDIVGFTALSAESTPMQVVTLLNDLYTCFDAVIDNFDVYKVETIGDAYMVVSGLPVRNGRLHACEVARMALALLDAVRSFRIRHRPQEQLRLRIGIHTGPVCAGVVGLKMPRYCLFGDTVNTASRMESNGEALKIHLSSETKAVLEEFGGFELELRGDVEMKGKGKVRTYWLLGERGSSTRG
Description: (§1) To examine the biochemical properties of the NPRB receptor, we constructed an expression vector in which the coding sequence was placed under the transcriptional control of the cytomegalovirus immediate-early promoter (Table 2). […] The NPRB expression vector was transfected into COS-2 cells in a transient expression assay and the detergent solubilized guanylyl cyclase activity of a membrane fraction was measured (Table 2). […] Specific binding of [^125 l]-human ANP (ANP) and [^125 l]-porcine BNP (pBNP) to transfected cells was determined in the presence of absence of unlabeled peptides.
(§2) COS-7 cells maintained in Dulbecco's modified Eagles' medium (DMEM) supplemented with 10% fetal calf serum were seeded at 5×10^6 cells per 100 mm plate (GC assay) or 1×10^5 per 35 mm plate (binding assay). Twelve house later, cells were transfected with control vector^5 (1 mg/ml) using DEAE-dextran.
(§3) Following the incubation, cells were rinsed with cold PBS, and dissolved in 2 ml of 0.2M NaOH and radioactivity was measured in gamma counter. All measurements were in triplicate. […] Specific binding in table 2 was calculated by subtracting the background binding from the total binding.

[2] = biological target: T2, NPRB (Homo sapiens, UniProt P20594); assay: Specific binding to COS-7 cells transfected with pRK-NPRB; details: Table 2, 0.5 nM, room temperature, 1 hr
T2 construct: whole cells or solubilized membranes
T2 sequence (P20594 23-1047): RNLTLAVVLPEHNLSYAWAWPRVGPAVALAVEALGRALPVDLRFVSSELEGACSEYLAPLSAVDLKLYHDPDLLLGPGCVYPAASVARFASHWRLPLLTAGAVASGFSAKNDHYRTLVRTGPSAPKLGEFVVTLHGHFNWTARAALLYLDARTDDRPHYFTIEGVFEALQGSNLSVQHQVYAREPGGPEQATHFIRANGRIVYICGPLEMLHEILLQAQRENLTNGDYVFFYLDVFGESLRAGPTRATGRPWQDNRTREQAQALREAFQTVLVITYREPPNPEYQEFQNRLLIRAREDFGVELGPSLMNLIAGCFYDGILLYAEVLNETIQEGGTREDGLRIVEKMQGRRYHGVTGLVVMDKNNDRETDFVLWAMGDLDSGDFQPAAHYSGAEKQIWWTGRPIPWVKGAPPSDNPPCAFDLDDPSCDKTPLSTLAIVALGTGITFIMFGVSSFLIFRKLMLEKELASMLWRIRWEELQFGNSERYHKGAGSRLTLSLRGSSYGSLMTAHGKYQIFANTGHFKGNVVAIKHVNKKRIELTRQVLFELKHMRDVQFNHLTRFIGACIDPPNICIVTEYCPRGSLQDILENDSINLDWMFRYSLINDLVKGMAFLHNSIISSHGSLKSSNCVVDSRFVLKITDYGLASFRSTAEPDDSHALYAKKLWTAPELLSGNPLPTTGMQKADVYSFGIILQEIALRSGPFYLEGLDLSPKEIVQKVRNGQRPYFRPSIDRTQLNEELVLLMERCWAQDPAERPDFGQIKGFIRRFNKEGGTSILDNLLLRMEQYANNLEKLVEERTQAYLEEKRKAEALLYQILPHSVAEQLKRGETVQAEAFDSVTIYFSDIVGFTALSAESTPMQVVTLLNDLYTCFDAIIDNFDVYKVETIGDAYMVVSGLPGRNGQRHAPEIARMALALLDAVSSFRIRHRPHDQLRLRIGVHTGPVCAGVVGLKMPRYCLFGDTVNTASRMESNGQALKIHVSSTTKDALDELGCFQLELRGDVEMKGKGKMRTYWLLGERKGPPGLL
Description: as §1, §2, §3

[3] = system: guanylyl cyclase; assay: Detergent-solubilized membrane (particulate) guanylyl cyclase activity of transfected COS cells; assay type: biochemical, human; details: for guanylyl cyclase specific activity, fold higher than control cells: COS-2 cells, membrane fraction; for Guanylyl Cyclase Activity: Table 2, transfected COS-7 cells, mean ± standard deviation of triplicate determinations
Description: To examine the biochemical properties of the NPRB receptor, we constructed an expression vector in which the coding sequence was placed under the transcriptional control of the cytomegalovirus immediate-early promoter (Table 2). The vector pRK is disclosed in EP 307,247, published Mar. 15, 1989. The NPRB expression vector was transfected into […] in a transient expression assay and the detergent solubilized guanylyl cyclase activity of a membrane fraction was measured (Table 2). Cells transfected with the NPRB expression vector has about eleven-fold higher guanylyl cyclase specific activity that control cells, while cells transfected with an NPRA receptor expression vector^5 using pRK has a six-fold higher guanylyl cyclase specific activity. Specific binding of [^125 l]-human ANP (ANP) and [^125 l]-porcine BNP (pBNP) to transfected cells was determined in the presence of absence of unlabeled peptides.
COS-7 cells maintained in Dulbecco's modified Eagles' medium (DMEM) supplemented with 10% fetal calf serum were seeded at 5×10^6 cells per 100 mm plate (GC assay) or 1×10^5 per 35 mm plate (binding assay). Twelve house later, cells were transfected with control vector^5 (1 mg/ml) using DEAE-dextran. The vector pRK-NPRBR contained nucleotides 253 to 3470 (FIG. 1) of the NPRB receptor in the expression vector pRK5 under the control of the cytomegalovirus immediate early promoter.
Guanylate cyclase activity was determined forty-eight hours after transfection, the cells were washed with phosphate buffer saline (PBS), scraped into 4 ml PBS and homogenized with 40 strokes of a Dounce homogenizer at 0° C. Nuclei were pelleted and the supernatant was centrifuged at 100,000 xg for 30 minutes in SW 55- Ti rotor to obtain a membrane pellet. Membrane proteins were solubilized by incubation or ice for 10 minutes in solution containing 20 mM Hepes, pH 7.4, 200 mM NaCl, 10% glycerol, 1% Triton X-100 and 1 mM dithiothreitol. Protein concentrations were measured by a dye binding assay (BioRad). Gyanylate cyclase reactions contained […] of membrane proteins in […] of 20 mM Hepes pH 7.4, 30 units of creatine phosphokinase, 1 mM GTP, 4 mM MnCl2 and 0.5 mM isobutyl methylxanthine (IBMX). After incubation at 37° C. for 10 minutes the reaction was stopped by addition of […] of 50 mM acetic acid (pH 6.2) and boiled for 3 min. Aliquots were analyzed for cGMP after acetylation with 1/20 volume of acetic anhydride/triethylamine (1:2) then radioimmuno-assay (Biomedical Technologies, Inc.). Results are expressed in Table 2 as the mean±standard deviation of triplicate determinations.

[4] = biological target: T2, NPRB; assay: Transient expression whole-cell stimulation of cGMP production, NPRB-transfected COS-7 cells; assay type: cell-based
Description: Ligand-dependent activation of the cytoplasmic guanylyl cyclase (GC) domains of the human NPRB and NPRA receptors was examined in transient expression whole-cell stimulation assays. In FIG. 3, the natriuretic peptide stimulation of cGMP production is shown. COS-7 cells transfected with pRK (control; pane C), human NPRA expression vector^5 (panel A), or human NPRB receptor expression vector (panel B) were either not treated (panel C) or stimulated with 500 nM porcine BNP (BNP) or human ANP (ANP) for 5 minutes. Results are expressed as the mean amount of cGMP (pmoles) per culture±standard deviation for 3 independent determinations.
The COS-7 cells were seeded at a density of 1×10^6 cells per well in a 60 mm plate with high glucose DMEM plus 10% heat inactivated dialyzed calf serum and maintained for 12 hours at 37° C. in 7%, 93% air. […] of plasmid DNA was transfected with […] of DEAE-dextran in 2 ml of high glucose DMEM±10% Nuserum (Gibco) for 4 hours. Cells were shocked with 20% glycerol in PBS for 1 minute, fresh medium was added and cells were maintained for 72 hours prior to stimulation. Non-treated cultures were incubated at 37° C. in DMEM with 25 mM Hepes pH 7.2, […] IBMX at 37° C. for 10 minutes, medium was aspirated and 6% trichloroacetic acid (TCA) was added. Stimulated samples were treated for an additional 5 minutes in the presence of 500 nM peptide before TCA treatment. Samples were frozen at -20° C. for 1 hr, thawed at room temperature, and cell debris was removed by centrifugation at 2500 xg for 10 minutes. Samples were extracted once with 4 volumes of water-saturated ether, briefly evaporated and assayed for cGMP as described in Table 2.

Molecule: [^125 l]-pBNP: [^125 l]-porcine BNP (600 Ci/mmol) (DSGCFGRRLDRIGSLSGLGCNVLRRY; ends and bridges not checked; also: 125I label, position not given here; UniProt P07634 106-131, looked up)
- Specific Binding of [^125 l]-pBNP [1]: 5,721 ± 1107 cpm
- Specific Binding of [^125 l]-pBNP [2]: 3,643 ± 26 cpm

Molecule: NPRA: 120-140 kd NPRA receptor, a membrane form of guanylyl cyclase
- guanylyl cyclase specific activity, fold higher than control cells [3]: six
- Guanylyl Cyclase Activity [3]: 1.91 ± 0.01 pmole cGMP/min/mg protein

Molecule: pBNP: porcine BNP (brain natriuretic peptide) (DSGCFGRRLDRIGSLSGLGCNVLRRY; ends and bridges not checked; cysteine pairing not given here; UniProt P07634 106-131, looked up)
- fold increase in cGMP over control transfected cells ([4]; NPRB, 500 nM peptide, 5 minutes): 9.7 fold
- fold more effective than ANP in the activation of NPRB GC activity ([4]; NPRB, 500 nM peptide, 5 minutes, versus ANP): 6.4 fold
- activation of NPRB receptor (in words) ([4]; pBNP as compared to human ANP): preferentially activated

Molecule: [^125 l]-ANP: [^125 l]-human ANP (1800 Ci/mmole, Amersham)
- Specific Binding of [^125 l]-ANP [2]: 10,694 ± 1412 cpm

B1: NPRB: human natriuretic peptide receptor B having the sequence of FIG. 1, expressed from pRK vector (protein, UniProt P20594 23-1047, looked up)
Atrial natriuretic peptide …: T2 sequence (P20594 23-1047)
- guanylyl cyclase specific activity, fold higher than control cells [3]: about eleven
- Guanylyl Cyclase Activity [3]: 3.50 ± 0.01 pmole cGMP/min/mg protein
